For assay [1], the target named is Mesothelin (MSLN) on target cells (human).
Assay [2] has the same target. The source holds these as a separate data set.

The record followed here is patent publication US20230277590A1.

On to M5 MSLN CAR, third generation, for which, in assay [1], the Time (hours) to 80% max killing of HeLa cells by transduced primary T cells (hours to 80% max killing (E:T 4:1)) is 28.

For the substance m912 MSLN CAR (Gen3), the EC50, Jurkat NFAT luciferase, HEK293 cells transfected with titrated MSLN mRNA (MSLN molecules/cell) in assay [2] is 80000.
